We go through 1 molecule from patent US20150139990A1 (DAINIPPON SUMITOMO PHARMA, published 2015).

One assay deals with T1, human CD81 mutant A164V (human, UniProt P60033 1-236, limits assumed).
T1 construct: as m30; not shown: C-terminal V5 and 6xHis tags
T1 sequence: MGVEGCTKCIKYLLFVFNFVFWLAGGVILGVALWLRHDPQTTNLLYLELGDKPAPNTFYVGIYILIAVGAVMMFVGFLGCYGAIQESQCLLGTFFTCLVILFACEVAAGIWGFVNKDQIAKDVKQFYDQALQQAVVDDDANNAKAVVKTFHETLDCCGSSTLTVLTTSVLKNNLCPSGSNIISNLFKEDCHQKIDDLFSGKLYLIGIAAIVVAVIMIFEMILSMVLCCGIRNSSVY
Description: ELISA.

Another assay addresses T2, human CD81 mutant V169L (human, UniProt P60033 1-236, limits assumed).
T2 construct: as m30; not shown: C-terminal V5 and 6xHis tags
T2 sequence: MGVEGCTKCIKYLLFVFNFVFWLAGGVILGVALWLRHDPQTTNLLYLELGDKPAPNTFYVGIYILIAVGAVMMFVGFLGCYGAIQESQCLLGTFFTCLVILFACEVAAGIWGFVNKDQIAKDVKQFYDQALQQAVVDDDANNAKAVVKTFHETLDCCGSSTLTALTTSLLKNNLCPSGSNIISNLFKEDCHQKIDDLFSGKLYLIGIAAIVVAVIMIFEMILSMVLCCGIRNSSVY
Description: ELISA.

Another assay deals with T3, human CD81 mutant S168T (human, UniProt P60033 1-236, limits assumed).
T3 construct: as m30; not shown: C-terminal V5 and 6xHis tags
T3 sequence: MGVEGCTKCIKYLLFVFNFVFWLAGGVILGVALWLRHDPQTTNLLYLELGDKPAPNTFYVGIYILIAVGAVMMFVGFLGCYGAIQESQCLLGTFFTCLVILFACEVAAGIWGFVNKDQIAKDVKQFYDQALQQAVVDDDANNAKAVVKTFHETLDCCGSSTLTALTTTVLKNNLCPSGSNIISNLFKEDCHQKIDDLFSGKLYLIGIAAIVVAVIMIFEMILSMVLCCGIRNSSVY
Description: ELISA.

A further assay has as its target T4, human CD81 mutant V135A (human, UniProt P60033 1-236, limits assumed).
T4 construct: as m30; not shown: C-terminal V5 and 6xHis tags
T4 sequence: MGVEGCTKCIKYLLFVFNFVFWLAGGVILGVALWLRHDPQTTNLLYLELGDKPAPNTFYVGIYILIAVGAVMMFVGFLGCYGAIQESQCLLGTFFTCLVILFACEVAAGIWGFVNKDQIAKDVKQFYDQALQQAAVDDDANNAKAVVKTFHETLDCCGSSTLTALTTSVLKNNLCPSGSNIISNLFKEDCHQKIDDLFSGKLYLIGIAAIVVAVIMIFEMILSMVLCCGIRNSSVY
As to the kind of experiment: ELISA.

The next assay addresses T5, human CD81 mutant V169A (human, UniProt P60033 1-236, limits assumed).
T5 construct: as m30; not shown: C-terminal V5 and 6xHis tags
T5 sequence: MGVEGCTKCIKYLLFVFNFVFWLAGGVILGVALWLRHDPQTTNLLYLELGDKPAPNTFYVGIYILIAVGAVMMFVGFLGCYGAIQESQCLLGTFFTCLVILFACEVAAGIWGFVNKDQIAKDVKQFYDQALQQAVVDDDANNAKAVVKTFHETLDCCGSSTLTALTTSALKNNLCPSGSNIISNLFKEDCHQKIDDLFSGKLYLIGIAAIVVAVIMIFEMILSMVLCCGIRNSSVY
As to the kind of experiment: ELISA.

For the next assay, the target named is T6, human CD81 mutant A164T (human, UniProt P60033 1-236, limits assumed).
T6 construct: as m30; not shown: C-terminal V5 and 6xHis tags
T6 sequence: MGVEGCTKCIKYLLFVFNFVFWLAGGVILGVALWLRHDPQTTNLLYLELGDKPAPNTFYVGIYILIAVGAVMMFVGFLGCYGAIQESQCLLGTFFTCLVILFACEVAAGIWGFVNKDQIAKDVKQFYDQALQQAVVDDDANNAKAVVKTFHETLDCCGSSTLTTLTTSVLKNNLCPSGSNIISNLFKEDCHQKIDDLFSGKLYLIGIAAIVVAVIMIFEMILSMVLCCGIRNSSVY
Description: ELISA.

The target of another assay is T7, human CD81 mutant L165A (human, UniProt P60033 1-236, limits assumed).
T7 construct: as m30; not shown: C-terminal V5 and 6xHis tags
T7 sequence: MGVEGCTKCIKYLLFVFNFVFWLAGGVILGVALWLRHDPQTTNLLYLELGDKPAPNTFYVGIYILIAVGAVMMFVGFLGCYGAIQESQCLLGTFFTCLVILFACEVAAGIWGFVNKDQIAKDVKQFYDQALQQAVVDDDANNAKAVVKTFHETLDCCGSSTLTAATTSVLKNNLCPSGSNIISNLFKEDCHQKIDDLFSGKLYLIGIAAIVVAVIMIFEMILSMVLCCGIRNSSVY
As to the kind of experiment: ELISA.

The next assay has as its target T8, human CD81 mutant I194A (human, UniProt P60033 1-236, limits assumed).
T8 construct: as m30; not shown: C-terminal V5 and 6xHis tags
T8 sequence: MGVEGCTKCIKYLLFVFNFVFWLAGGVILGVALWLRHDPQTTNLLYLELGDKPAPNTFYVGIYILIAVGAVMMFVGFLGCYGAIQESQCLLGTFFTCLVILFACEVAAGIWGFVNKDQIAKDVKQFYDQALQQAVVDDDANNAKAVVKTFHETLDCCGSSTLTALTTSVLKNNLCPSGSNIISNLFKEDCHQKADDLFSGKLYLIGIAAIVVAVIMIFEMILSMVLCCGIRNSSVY
As to the kind of experiment: ELISA.

The next assay deals with T9, human CD81 mutant S168A (human, UniProt P60033 1-236, limits assumed).
T9 construct: as m30; not shown: C-terminal V5 and 6xHis tags
T9 sequence: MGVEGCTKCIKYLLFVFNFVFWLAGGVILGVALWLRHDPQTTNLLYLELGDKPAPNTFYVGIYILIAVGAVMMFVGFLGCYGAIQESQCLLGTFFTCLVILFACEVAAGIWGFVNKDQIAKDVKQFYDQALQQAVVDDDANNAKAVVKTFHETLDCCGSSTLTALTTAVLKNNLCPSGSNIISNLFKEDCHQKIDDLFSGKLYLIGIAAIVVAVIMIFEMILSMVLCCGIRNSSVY
Description: ELISA.

Assay [1] has as its target T10, human CD81 on CD81-expressing cells (Jurkat E6.1, human PBMC, Ramos) (human, UniProt P60033 1-236).
T10 sequence: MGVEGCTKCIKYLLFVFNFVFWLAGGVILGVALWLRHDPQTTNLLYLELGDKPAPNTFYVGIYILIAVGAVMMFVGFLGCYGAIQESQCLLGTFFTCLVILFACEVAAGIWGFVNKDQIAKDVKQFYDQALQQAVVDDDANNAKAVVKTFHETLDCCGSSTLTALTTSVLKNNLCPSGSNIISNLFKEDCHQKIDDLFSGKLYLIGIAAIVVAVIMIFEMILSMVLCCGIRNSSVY
As to the kind of experiment: cell-based or functional assay.

B1: 002-F05 (antibody, human IgG4 S228P, lambda, V domains shown)
VH: EVQLLESGGGLVQPGGSLRLSCAASGFTFSSNYMSWVRQAPGKGLEWVSYISSSSTYTDYADSVKGRFTISRDNSKNTLYLQMNSLRAEDTAVYYCARYSYGRDDFDYWGQGTLVTVSS
VL: QSVLTQPASASGTPGQRVTISCTGSTSNIGAGYDTHWYQQLPGTAPKLLIYGNSNRPSGVPDRFSGSKSGTSASLAISGLRSEDEADYYCQSYDTNLNVWVFGGGTKLTVLG
notes: IgG4 S228P
Take B1: the relative binding affinity with human CD81 mutant A164V, with human CD81 mutant V169L, with human CD81 mutant S168T, with human CD81 mutant V135A, in the assay with human CD81 mutant V169A and in the assay with human CD81 mutant A164T was under 20% throughout. The relative binding affinity with human CD81 mutant L165A, in the assay with human CD81 mutant I194A and in the assay with human CD81 mutant S168A was under 20% each time. The “Jurkat chemotaxis (% of control IgG4) at 0.001 µg/mL” value in assay [1] is 102%. The “Jurkat chemotaxis (% of control IgG4) at 0.01 µg/mL” value in [1] was 79%. The “Jurkat chemotaxis (% of control IgG4) at 0.1 µg/mL” value in assay [1] is 27%. For the same molecule, the “Jurkat chemotaxis (% of control IgG4) at 1 µg/mL” value in assay [1] turned out to be 5%. Besides, in assay [1], the “Jurkat chemotaxis (% of control IgG4) at 10 µg/mL” value came to 7%.
